# Test results from publication PMC12509757.
# Experiments:
# [1] = target: microtubules of HEK293T cells (microtubule fraction), P68363;P07437; experiment: tubulin/microtubule fractionation of HEK293T lysates (immunoblot); conditions: chain shown with the change;
# [2] = target: microtubules polymerized from pig brain tubulin (pig) (UniProt P02550); experiment: co-sedimentation; in vitro; recombinant His GST protein (1 μM in the legends, 2 μM in the methods) with increasing concentrations of microtubules from pig brain tubulin (or BSA instead) in 1X BRB80, 1 mM DTT, 20 μM paclitaxel, 5 min at room temperature; 100,000g, 15 min, 30 °C through 40% glycerol; immunoblot of supernatant and pellet; apparent Kd, one site-specific binding fit
# [3] = target: microtubules of osteoclasts (polymerized from endogenous tubulin) (mouse (endogenous in RAW264.7-derived osteoclasts)) (UniProt P05213); experiment: co-sedimentation; tubulin/microtubule fractionation of Arhgap10 KO #28 osteoclasts expressing doxycycline-induced myc-ARHGAP10 constructs; immunoblot (Fig. S2)
# Chain of microtubules of osteoclasts (polymerized from endogenous tubulin) (mouse (endogenous in RAW264.7-derived osteoclasts)) (P05213 whole entry, chain 1 of 2): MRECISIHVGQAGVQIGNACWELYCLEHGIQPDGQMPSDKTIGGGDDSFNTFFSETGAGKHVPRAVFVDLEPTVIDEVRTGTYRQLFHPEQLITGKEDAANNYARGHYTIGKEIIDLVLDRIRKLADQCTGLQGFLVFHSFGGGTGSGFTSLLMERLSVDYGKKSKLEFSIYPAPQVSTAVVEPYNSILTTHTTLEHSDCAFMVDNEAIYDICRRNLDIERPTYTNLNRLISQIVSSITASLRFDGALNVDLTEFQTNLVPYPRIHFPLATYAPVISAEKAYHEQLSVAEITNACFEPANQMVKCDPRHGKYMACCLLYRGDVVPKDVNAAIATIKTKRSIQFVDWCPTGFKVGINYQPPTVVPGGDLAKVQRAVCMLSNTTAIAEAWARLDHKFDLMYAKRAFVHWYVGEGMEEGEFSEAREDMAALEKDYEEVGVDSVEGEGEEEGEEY
# Chain of microtubules of osteoclasts (polymerized from endogenous tubulin) (mouse (endogenous in RAW264.7-derived osteoclasts)) (P99024 whole entry, chain 2 of 2, further chain): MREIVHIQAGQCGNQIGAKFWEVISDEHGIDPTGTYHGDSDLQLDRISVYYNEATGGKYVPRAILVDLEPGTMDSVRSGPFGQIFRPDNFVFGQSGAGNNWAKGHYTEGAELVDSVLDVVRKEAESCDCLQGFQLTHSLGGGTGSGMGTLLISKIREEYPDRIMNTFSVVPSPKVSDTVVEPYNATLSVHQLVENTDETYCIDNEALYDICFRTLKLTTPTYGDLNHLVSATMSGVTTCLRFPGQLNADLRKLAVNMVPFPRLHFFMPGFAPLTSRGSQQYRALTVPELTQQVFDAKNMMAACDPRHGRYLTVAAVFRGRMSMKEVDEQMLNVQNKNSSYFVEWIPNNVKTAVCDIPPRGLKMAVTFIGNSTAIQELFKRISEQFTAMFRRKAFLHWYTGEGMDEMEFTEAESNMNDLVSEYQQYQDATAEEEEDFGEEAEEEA
# Chain of microtubules of HEK293T cells (microtubule fraction), P68363;P07437 (chain, as listed by the source, chain 1 of 2): as the sequence (P05213 whole entry, chain 1 of 2) above
# Chain of microtubules of HEK293T cells (microtubule fraction), P68363;P07437 (chain, as listed by the source, chain 2 of 2): as the sequence (P99024 whole entry, chain 2 of 2, further chain) above
binder,measurement,setting,value
"myc-tagged BAR-PH (aa 1-388) of ARHGAP10, WT, A1A4S6 K37E; K41E; K44E (protein) MGLQPLEFSDCYLDSPWFRERIRAHEAELERTNKFIEELIEDGENLIAATKSLSVAQRKFAHSLRDFKFEFIGDAVTDDERCIDASLREFSNFLKNLEEQREIMALSVTETLIKPLEKFRKEQLGAVKEEKKKFDKETEKNYSLIDKHLNLSAKKKDSHLQEADIQVEQNRQHFYELSLEYVCKLQEIQERKKFEFVEPMLSFFQGMFTFYHQGHELAKDFNHYKMELQINIQNTRNRFEGTRSEVEELMNKIRQNPKDHKRASQFTAEGYLYVQEKRPAPFGSSWVKHYCMYRKAAKKFNMIPFEHRSGGKLGDGEVFFLKECTKRHTDSIDRRFCFDIEAADRPGVSLTMQAFSEEERKQWLEALGGKEALSHSFNTAIIPRPEGN",response,[1]; parent: 60,32.7 % in MT
"myc-tagged full-length human ARHGAP10, WT (HEK293T), A1A4S6 K37E; K41E; K44E (protein) MGLQPLEFSDCYLDSPWFRERIRAHEAELERTNKFIEELIEDGENLIAATKSLSVAQRKFAHSLRDFKFEFIGDAVTDDERCIDASLREFSNFLKNLEEQREIMALSVTETLIKPLEKFRKEQLGAVKEEKKKFDKETEKNYSLIDKHLNLSAKKKDSHLQEADIQVEQNRQHFYELSLEYVCKLQEIQERKKFEFVEPMLSFFQGMFTFYHQGHELAKDFNHYKMELQINIQNTRNRFEGTRSEVEELMNKIRQNPKDHKRASQFTAEGYLYVQEKRPAPFGSSWVKHYCMYRKAAKKFNMIPFEHRSGGKLGDGEVFFLKECTKRHTDSIDRRFCFDIEAADRPGVSLTMQAFSEEERKQWLEALGGKEALSHSFNTAIIPRPEGNAQLDKMGFTIIRKCISAVETRGINDQGLYRVVGVSSKVQRLLSMLMDVKTCNEVDLENSADWEVKTITSALKQYLRSLPEPLMTYELHGDFIVPAKSGSPESRVNAIHFLVHKLPEKNKEMLDILVKHLTNVSNHSKQNLMTVANLGVVFGPTLMRPQEETVAALMDLKFQNIVVEILIENHEKIFRTPPDTTFPEPTCLSASPPNAPPRQSKRQGQRTKRPVAVYNLCLELEDGDNPYPSKEDTPTSSLDSLSSPSPVTTAVPGPPGPDKNHLLADGGSFGDWASTIPGQTRSSMVQWLNPQSPTTTSSNSAVTPLSPGSSPFPFSPPATVADKPPESIRSRKARAVYPCEAEHSSELSFEIGAIFEDVQTSREPGWLEGTLNGKRGLIPQNYVKLL",response,[1]; parent: 59.1,26 % in MT
"His GST BAR-PH (aa 1-388) of ARHGAP10, WT (domain or fragment) MGLQPLEFSDCYLDSPWFRERIRAHEAELERTNKFIKELIKDGKNLIAATKSLSVAQRKFAHSLRDFKFEFIGDAVTDDERCIDASLREFSNFLKNLEEQREIMALSVTETLIKPLEKFRKEQLGAVKEEKKKFDKETEKNYSLIDKHLNLSAKKKDSHLQEADIQVEQNRQHFYELSLEYVCKLQEIQERKKFEFVEPMLSFFQGMFTFYHQGHELAKDFNHYKMELQINIQNTRNRFEGTRSEVEELMNKIRQNPKDHKRASQFTAEGYLYVQEKRPAPFGSSWVKHYCMYRKAAKKFNMIPFEHRSGGKLGDGEVFFLKECTKRHTDSIDRRFCFDIEAADRPGVSLTMQAFSEEERKQWLEALGGKEALSHSFNTAIIPRPEGN",Kd,[2],1270 nM
"myc-tagged full-length ARHGAP10, WT, re-expressed in Arhgap10 KO osteoclasts (natural protein) MGLQPLEFSDCYLDSPWFRERIRAHEAELERTNKFIKELIKDGKNLIAATKSLSVAQRKFAHSLRDFKFEFIGDAVTDDERCIDASLREFSNFLKNLEEQREIMALSVTETLIKPLEKFRKEQLGAVKEEKKKFDKETEKNYSLIDKHLNLSAKKKDSHLQEADIQVEQNRQHFYELSLEYVCKLQEIQERKKFEFVEPMLSFFQGMFTFYHQGHELAKDFNHYKMELQINIQNTRNRFEGTRSEVEELMNKIRQNPKDHKRASQFTAEGYLYVQEKRPAPFGSSWVKHYCMYRKAAKKFNMIPFEHRSGGKLGDGEVFFLKECTKRHTDSIDRRFCFDIEAADRPGVSLTMQAFSEEERKQWLEALGGKEALSHSFNTAIIPRPEGNAQLDKMGFTIIRKCISAVETRGINDQGLYRVVGVSSKVQRLLSMLMDVKTCNEVDLENSADWEVKTITSALKQYLRSLPEPLMTYELHGDFIVPAKSGSPESRVNAIHFLVHKLPEKNKEMLDILVKHLTNVSNHSKQNLMTVANLGVVFGPTLMRPQEETVAALMDLKFQNIVVEILIENHEKIFRTPPDTTFPEPTCLSASPPNAPPRQSKRQGQRTKRPVAVYNLCLELEDGDNPYPSKEDTPTSSLDSLSSPSPVTTAVPGPPGPDKNHLLADGGSFGDWASTIPGQTRSSMVQWLNPQSPTTTSSNSAVTPLSPGSSPFPFSPPATVADKPPESIRSRKARAVYPCEAEHSSELSFEIGAIFEDVQTSREPGWLEGTLNGKRGLIPQNYVKLL",percent associated with the microtubule-containing fraction,[3],50%
